Data taken from paper doi:10.1101/2020.05.26.111013.

Target: PelX^C232S (Pseudomonas protegens Pf-5)
Test: SEC

Substance: PelX^C232S (enzyme)
- stoichiometry N: 2
